Results from the DeepSol protein solubility set.

Test: soluble on expression in E. coli; label from the status in PepcDB or PDB records

| Sequence | soluble on expression in E. coli |
| --- | --- |
| MGSDKIHHHHHHMFRRHGIIAFSSNYELYADMSNRVMTTLEELSPRCEIYSIDEAFCDLTGVRNCRDLTDFGREIRETVLRRTHLTIGVGIAQTKTLAKLANHAAKQWQRQTGGVVDLSNLERQRKLMALLPVDEVWGVGRRISKKLEAMGIKTVLQLADTDIRFIRKHFNVVLERTVRELRGEPCLGLEEFAPVKQEIVCSRSFGGRITEYHEMRQAICSYASRAAEKLRGEHQYCRFISAFVKTSPFALNEPYYGNSASVKLLTPTQDSRDIITAATKCLDAIWRDGHRYQKAGVMLGDFYSQGVAQLNLFDDNAPRKGSEKLMEVLDHLNAKGGRGTLYFAGQGIQTAWQMKREMLSPRYTTRFCDLLKVR | not soluble |
| MGSDKIHHHHHHMFSKIEFKNFMSFSNLTFDLLNRGKCKDIIAIYGENGSGKTNIVEAFKLLVLSLQSMESLNENTRLQSLLKEQTNKEENQKTNFGDISEILDKISFFTTFKGIAKNTHRIASEGNTILKYYFNIEKDNGYYLLEYNENNELVKEELVFKIKSNKGVHFSITNIDGLSQSLNKTIFKNTIFKDLTEQIEKYWGKHTFLSIFNNYCLEVNEEFINEQVSINFQKVVDEFDKIFIWSGNFRGPFHSTELLLKDISKGKIDKSEKEKLSYTEEIIYKYFSALYIDIKDVKYKQDAQGQEIKYELMIRKNIGGDLLDVPISLESQGTKNLLDLLKVFNNVLDGKICIVDEIDSGIHDLLMNSILNDLKGSVNGQLIFTTHDTTLLKELSPSSAYFLNVDIKGNKVIISGNEADKKIGVNNNLEKLYLSGFFGAVPDPLDIDFSDLFLDHNLSED | not soluble |
| MGSDKIHHHHHHMGGAALPDNGWPADRIDTESAHSARIYDYIIGGKDYYPADKEAGDAMSREWPALPVHMRANRDWMNRAVAHLAKEAGIRQFLDIGTGIPTSPNLHEIAQSVAPESRVVYVDNDPIVLTLSQGLLASTPEGRTAYVEADMLDPASILDAPELRDTLDLTRPVALTVIAIVHFVLDEDDAVGIVRRLLEPLPSGSYLAMSIGTAEFAPQEVGRVAREYAARNMPMRLRTHAEAEEFFEGLELVEPGIVQVHKWHPDAATADGIRDEDIAMYGAVARKP | not soluble |
| MGSDKIHHHHHHMGIYRTQLPQLDGGVFLTDGGIETTLIFHEGFELPYFAAFELLKTPQGRDALTHYFVTYVKLAGLFDTGFILESPTWRASSDWGALLGYTKETLAQANREAIALLEVIREAHSGRLPVVVSGCIGPRFDGYLPDKSMTAEDARHYHSIQIETLASTSADMICALTLNRVEEAIGIVEAAREAAMPVVISFTLETDGRLPTGQSLGDAVVQVDEATAGYAAYFMINCAHPSHLETVPQDAPWLARVKGFRANASSLSHAELNDATTLDDGDPHQLGQQYASLMSTRLKGLNVLGGCCGTDHRHLEQIAKACIKPR | not soluble |
| MGSDKIHHHHHHMGLEQDDEGGARRACVIVIGNQKGGSGKSTVAMHLVVSLARAGLRTGSIDLDAGQATLTRYLENRRAFAEKRGLDLPSPEHVPMVPGTSLEADIRRLEHSMLAFHEEVDVVVIDTPGSDTALNRAAHALADVLITPLNDSFIDLDVMARIDGDSMTITGPSPYAAAVWEAKQARARRDGTSMRWIVMRNRLSHLDARNKRDMEDALNDLSRRIGFSVVPGLGERVIYRELFLNGLTLLDLKDKGTGVDISMSHVAARQELRALLAAIGMPKSIGL | not soluble |
| MGSDKIHHHHHHMGLLTKGSPLTWAETVPHIDYIKKHGIAQFINLYHRLKSRHGDQLKWGDEIEYTIVKFDDANKKVRVSCKAEELLNKLQAEEQVNAMLGTANRFLWRPEFGSYMIEGTPGMPYGGLIACFNIVEANMKLRRQDETCLSISFPSLGVPGFTFPEVAADRKNDDAANSVFWPEQAVFLGHPRFKNLTKNIKGRRGSKVAINVPIFKDTNTPSPFVEDLSALGGPDDTRDAKPDHIYMDHMGFGMGCCCLQVTFQAVNVDEARWLYDQLTPITPILLALSAATPIFRGKLSNVDSRWDIISASVDDRTPEERGLEPLKNSKWVIDKSRYDSTDCYIYPCSVGYNDIPLQYDETIYKQLIDGNIDEPLAKHIAHMFIRDPHQVFRERIEQDDEKSSEHFETIQSSNWMNMRFKPPPPDAPEIGWRVEFRPTEVQLTDFENAAYCCFVVLLTRMMISFRLTYLMPISMVTENMKRAQQKDAVLNQKFLFRKGLAECKSAPENLKGSEKCGPPSQDIEEMSIDEIINGKKNGFPGLISLIRQFLDSADVDVDTRCTISQYLNFISKRATGEINTLAHWTRGFVQSHPAYKHDSDVNDNIVYDLLKKMDAISNGEDHCEKLLGCYRSKTDHAISAAVRKAEEHMIVSSQKRAH | not soluble |
| MGSDKIHHHHHHMGLNAYIQGFNSLESIDRAPGYFKYHHHSVADHCFRTAELAQMMGDIEEVHGNKKINWKALYEKSLNHDYTERFIGDIKTPVKYATPQLRKMIGDVEETMTTKFIKEEIPKEFQEIYTRRLSEGKDDTLEGKILSVCDKLDLLYEAYGEIELGNPNPVYMQMFKESLETIKKFDDLVCVQYFIKKILPDLFKGDFAGKDKMQRIAFSILLLGDDE | not soluble |
| MGSDKIHHHHHHMGQRIIIDPVTRIEGHAKISIHLDDHGDVAETRFHVTEFRGFERFCIGRPFWEMPGITARICGICPVSHLLASARAGDGILAVLIPPAAEKLRRLMNLAQIIQSHALSFFHLSGPDLMLGFDSDPAQRNIFGLIAADPDVARNGIRLRQFGQEVIEMLGGRKIHPAWAVPGGVRSGLSASSRDHIRAKLPEMLTIACDALGRLKQLSAKYQREIETFGVFPSLYLGMVGPGGRWMHYGGKLRVIDHTGNILIDELDPIDYRDVIGEAVEPWSYLKFPYIRALGYPQGMYRVGPLARINICTTMGAERADAELRELRQAVGPVIHGSFYYHHARLIEIIAALERMEVLVEDDDLLSTELRADAGVNRHEAVGVSEAPRGTLFHHYRVDEKGLITDVNLIIATGQNNLAINRTVGQIAQSYIRHGQFDEGILNRIEAGVRAYDPCLSCSTHAVGQMAMEVDLYNAQGELINRLSR | not soluble |
| MGSDKIHHHHHHMGQTTFSRQKDGQPDTAYHDSETTYHYSETTYNYAYLDESTKGMIRRAILKAIAIPGHQVPFGSREMPMPYGWGTGGIQITASIIGPNDTLKVIDQGSDDTTNAVSIRAFFRKVTNVPTTEKTSEATLIQTRHRIPETPLKEDQILVFQVPIPEPLRFIEPRETETCKMHALEEYGVMQVKLYEDIARFGHIATTYAYPVKVNHRYVMDPSPIPKFDNPKMDMMPALQLFGAGREKRVYAVPPYTVVESLDFDDHPFTIQQWDKPCELCGARDSFLDEVVMDDDGTRMFVCSDTDYCQLRQSQGEKTS | not soluble |
| MGSDKIHHHHHHMGTKKNFVIDTNVILHDYNCLKNFQENDIHLPLVVLEELDKFKKGNEQINFNAREFVRELDLLTSDELFSQGVSLGEGMGRLFVVPGNVDAPKVHESFPVKKPDHLILAAVEYLAAKYPKTPAILVTKDVNLRMKARSIGITSEDYITDKVSNVDIFEKSNEIFENVDPALIDRIYSSKEGIDLSEFDFKDVIHPNECFVLKSDRNSVLARYNPFTHSICRVTKGRNYGIEPRNAEQSFAFEILNDPNVKLVALTGKAGTGKTLLALAAALGKLTDYKQVLLARPVVALSNKDIGFLPGDAQEKVAPYMQPLFDNLNVIKRQFAANSTEVKRIEDMQKSEQLVIEALAFIRGRSLSEMYCIIDEAQNLTPNEIKTIITRAGEGTKMVFTGDIQQIDQPYLDSQSNGLVYMIDRMKDQNIFAHVNLVKGERSQLSELASNLL | not soluble |
| MGSDKIHHHHHHMGVKFTLMGTTAGLGVPAFHCNCIACREARADPFWARTRSGAVLETGKENILIDASPDLSKQLLRERIQSVDYLFVTHWHYDHFGGIGDLEYYVKLERKRPVALFLPPSAVDDFAKAYPFLEEVFVIEPWEFGKSYAFEGIELTVLPARHSIETGGILLAGAKRAAYFTDTSGLPAPTARQLQGVDTLICDATFNGANWFPHSHMNWQEAIALGESIRAQHTVLTHLAMHYSTPITAAQLQEKLKDYAQVSLAYDGMVLTI | not soluble |
| MGSDKIHHHHHHMHILFLTHYFPPEVNAPASRTYENARRWVRDGHHVTVITCAPNHPKGVIYPGYRNRWCQQEDLDGIRVLRVKTYLSANKGFAKRIANYLSYMLSSTVFSCLVRDIDVVVSTSPQFFCGLAGYFVSRARSAPWVVEIRDLWPESIIAVGAIRNRTVIDLLEGLETFMYRRADHVVAVTDAFKRHIAGRGVGRDRISVIKNGADLERFTSGPRENSFRREHGLEGKFVVSYVGTHGMAHGLNTIFETAEAMRSCEDIVFLLVGDGAEREPLLARKAELGLTNVLMLPQQPKERMPEIINASDACMVLLKKTDLFKTVIPSKIFEAMAMERPIILGVEGESREIVEEGCCGLCIEPENAAELADAIRRLRDDGKLADELGQNGRRFVSAVFNREVLARRYLETLSSMVPLPASTIGVIGKELP | not soluble |
| MGSDKIHHHHHHMHKVMISRIKGTQDIAFEDIDYWHFAEEIIRNISHKYAFTEIRTPIFEATELFKRSVGESTDVVQKEMYTFEDKGGRSITLRPEGTASVARAFIENSFINLGSPVKLFYSGPMFRYEKPQAGRLRQFHQFGAEILGSESPLADFEIIEMAYSFLKELKINNAKLFINSIGCPACREDYKTALKEYYSDKLAGMCPDCQRRYETNVLRLLDCKIDKGLVQGAPGILDYLDSDCRSHFEELQWYLERAGIDYEVDQFLVRGLDYYTRTAFEIRSSSLGSQDQLVGGGRYDGLVEYIGGKSCPAVGFAIGLERIVMLLKSENVRINGPETSEVAILTFGREESVRGFDYAKRLRKMGVSTFVDVMERNMRNKMKHASRIGAKISLLIGKEEIERDIVTIKVMNDGSQFQVDSDYMADYVVDKLRDIS | not soluble |
| MGSDKIHHHHHHMHRDTVFDLIGIGFGPSNLALAVRLAEEAGVPDLAHCFIERQPEFGWHRGMLLDDCRMQISFLKDLVTMRDPKSRFTFINYLFERGRLADFVNLKSFYPTRVEFHDYLAWVAASFDDRVNYGQTVTGIEAVKATARTNEVEALRVFSRDSEGREWQRVTRALSVGIGGGAQVPEAFAALGTHNIVHSSQYLTSIDRVVGPASSARKRVAVIGAGQSAAEVFVDLTRRYPHVDASLIIRSGALKPADDSPFVNEIFSPAFTDVVYAQPRDGRRALIERFRDTNYAVVDRPLIEQIYEMLYLQNVCAEPRHRLLANTGIETAVRTVNGRIELTLRDRLNGHARAEQFDALVLATGYRRDTHLDLLEGLAPHLGEALAQGNVERDYRLATPASFKPRIYLQGCCEDSHGLSDTLLSVLALRSDEIAASLAHHAAQDRSAGRAGEAQANATAASRMAFAL | not soluble |
| MGSDKIHHHHHHMHTFLASSSMQLSVPPNHFQSMKIVALGDSLIYGFGDPEKGGWIEQLRRWWMLPDSAGHVLYNLGVRGDRTQQVAQRLEVEFRHRGELRNRVPDLIILSVGVNDSARLARPDGRSYTDFTLFEKEIATLLDLAQQLCPVLFVGMVPVDEAKMPFLDCFYYNHVDQYRYKEATRLACTKRQIPYLDIFEKWMERGENWRLKRLSEDGLHPNTLGYQALLEDVINWDAIHSVGFANAAYHSQFNYHLKQS | not soluble |
| MGSDKIHHHHHHMIAKIIMGGGKMIKRVKTGIPGMDEILHGGIPERNIVLISGGPGTGKTIFSQQFIWNGLQMGEPGIYVALEEHPVQVKKNMEVFGWNVDPFEKEGKFAIVDAFTGGIGEYAEKEKYVVRDIDDVRELAEVLKRAVRETQAKRVVIDSVTTLYITKPAMARSIIFQLKRILSGLGCTSLFVSQVSVTEKGFGGPGVEHGVDGIIRLDLDEIDGELKRSLIVWKMRGTSHSMRRHPFEITDKGIVIYPSEGGEGR | not soluble |
| MGSDKIHHHHHHMIASPEPEYLTPEEYLQLEEASPIKHEYINGYAYAMAGATDAHVTVAGNLFVLLRNHVRGSGCRVYIADMKARIESLNRYYYPDVMVTCDQRDQETPNHKRFPCLIVEVLSNSTEAFDRGDKFVDYQEIETLKEYVLINTKRQRVECFKRGDHGLWILQSYTEQDKIFRLNSVDFEGAIAELYEDVIFEQTTL | not soluble |
